Data reported in article PMC5472179 (Nature Communications, 2017).
Ends that are not written are not given here. * marks the point of attachment. FITC = O=C1OC2(c3ccc(O)cc3Oc3cc(O)ccc32)c2ccc(NC(=S)*)cc21

Target: T1, eVP30 110-272 (Ebola virus (Zaire), UniProt Q05323 110-272)
T1 sequence: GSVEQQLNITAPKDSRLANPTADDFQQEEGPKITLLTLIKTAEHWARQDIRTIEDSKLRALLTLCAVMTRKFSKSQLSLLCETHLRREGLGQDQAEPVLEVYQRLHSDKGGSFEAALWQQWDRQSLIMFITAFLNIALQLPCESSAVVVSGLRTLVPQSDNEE
Experiment: fluorescence polarisation
Conditions: both partners purified

B1: FITC-labeled eNP600-615 peptide (peptide)
peptide: {FITC}-RTPTVAPPAPVYRDHS
binding result: binds

B2: unlabeled eNP600-615 peptide (peptide)
peptide: RTPTVAPPAPVYRDHS
binding result: binds
